In patent publication US11578315B2, “Truncated guinea pig L-asparaginase variants and methods of use” (THE BOARD OF TRUSTEES OF THE UNIVERSITY OF ILLINOIS, priority 2017, dated 2023):

Substrate: NC(=O)C[C@H](N)C(=O)O
Assay: L-asparaginase kinetics, NADH-dependent enzyme-coupled assay
Format: biochemical, E. coli
Details: other: pH 7.5, 37° C., 3 nM enzyme
Method: The catalytic activity of the clones was determined using a spectroscopic NADH-dependent enzyme-coupled assay (Fernandez, et al. (2013) Int. J. Clin. Exp. Med. 6:478-487; Hejazi, et al. (2002) Biochem. J. 364:129-136), which measures the production of L-aspartic acid (Asp) through the 1:1 oxidation of reduced NADH. The conversion of NADH to NAD was measured spectrophotometrically as a decrease in absorbance at 340 nm at 37° C. All measurements were taken in triplicate in a buffer containing 100 mM Tris pH 7.5, 0.4 mM α-ketoglutarate and 0.4 mM NADH with 50 nM (hASNase1, hN-gC); 10 nM (gpASNase1, gN-hC, 63-hC, 64-hC, 65-hC, SA-hC) or 3 nM (ansB) enzyme. Glutamic-oxalacetic transaminase (Sigma) and malic dehydrogenase (Sigma) were helper enzymes for the coupled enzymatic reactions; 5 and 1 unit were used, respectively. Data were fit to the Michaelis-Menten equation using SigmaPlot (Systat Software Inc). Due to the cooperative nature of hASNase1, this enzyme was analyzed using the Hill equation.

B1: E. coli L-asparaginase ansB (type II) (Escherichia coli K-12) (protein)
chain: LPNITILATGGTIAGGGDSATKSNYTVGKVGVENLVNAVPQLKDIANVKGEQVVNIGSQDMNDNVWLTLAKKINTDCDKTDGFVITHGTDTMEETAYFLDLTVKCDKPVVMVGAMRPSTSMSADGPFNLYNAVVTAADKASANRGVLVVMNDTVLDGRDVTKTNTTDVATFKSVNYGPLGYIHNGKIDYQRTPARKHTSDTPFDVSKLNELPKVGIVYNYANASDLPAKALVDAGYDGIVSAGVGNGNLYKSVFDTLATAAKTGTAVVRSSRVPTGATTQDAEVDDAKYGFVASGTLNPQKARVLLQLALTQTKDPQQIQQIFNQY
notes: made in house
Km: 11 ± 1 µM
kcat: 48 ± 1 s⁻¹
kcat/Km: 4.4e+06 M⁻¹ s⁻¹
